Experimental data published in PMC11873350.
pKd: −log10 of the molar value. Where two headings read alike, the source gives them in different places.

What was measured:
Experiment in all cases: BLI
SHH002-hu1-MICA (human) = SHH002-hu1-MICA (human) (UniProt Q29983)
rhNKG2D-Fc (human) [1] = target: rhNKG2D-Fc (human) (UniProt P26718)
rhNKG2D-Fc (human) [2] = target: rhNKG2D-Fc (human) (UniProt P26718); remark: listed apart in the source

UniProt Q29983, sequence (Q29983 whole entry, looked up): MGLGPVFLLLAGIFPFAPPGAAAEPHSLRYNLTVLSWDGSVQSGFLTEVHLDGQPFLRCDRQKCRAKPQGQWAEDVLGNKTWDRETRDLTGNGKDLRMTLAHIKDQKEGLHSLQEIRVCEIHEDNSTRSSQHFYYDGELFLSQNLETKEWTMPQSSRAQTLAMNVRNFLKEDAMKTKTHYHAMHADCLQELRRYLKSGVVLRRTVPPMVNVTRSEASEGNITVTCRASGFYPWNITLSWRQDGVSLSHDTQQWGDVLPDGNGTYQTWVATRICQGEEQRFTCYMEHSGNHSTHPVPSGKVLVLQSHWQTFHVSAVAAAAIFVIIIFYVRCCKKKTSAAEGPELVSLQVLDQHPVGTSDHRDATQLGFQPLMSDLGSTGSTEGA

pKd (SHH002-hu1-MICA (human)) | pKd (rhNKG2D-Fc (human) [1]) | pKd (rhNKG2D-Fc (human) [2]) | Substance
> 12.00 |  |  | rhFzd7-His (from UniProt O75084 33-574) (receptor)
 | 8.90 | 7.90 | rhMICA-His (from UniProt Q29983 24-383) (ligand)
7.34 |  |  | rhNKG2D-Fc (from UniProt P26718 73-216) (Fc fusion)
